# Experimental data published in patent publication US8008547B2, “Glyphosate-N-acetyltransferase (GAT) genes” (E.I. duPont de Nemours, priority 2000, dated 2011).
# Test: Standard protocol for determination of kcat and KM (continuous spectrophotometric assay, Acetyl CoA hydrolysis at 235 nm)
# Assay type: biochemical
# Conditions: purified protein, about 23° C., 0.2 mM acetyl CoA; for Kcat: 20 mM HEPES pH 6.8, 10% ethylene glycol; for Km: pH 6.8, glyphosate 0.125 to 10 mM
# How it was run: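 KM from initial rates over 0.125–10 mM glyphosate, fitted by Lineweaver-Burke transformation of Michaelis-Menten; kcat/KM computed as kcat divided by KM. Continuous spectrophotometric read of acetyl-CoA hydrolysis at 235 nm.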
Molecule,Kcat,Km
"SEQ ID NO: 437: GAT polypeptide (protein, 9H11, GAT polypeptide) MIEVKPINAEDTYEIRHRILRPNQPLEACKYETDLLGGTFHLGGYYRGKLISIASFHKAEHSELEGEEQYQLRGMATLEGYREQKAGSTLIRHAEELLRKKGADLLWCNARTSVSGYYKKLGFSEQGEVYDIPPIGPHILMYKKLT",0.067 s⁻¹,2300 µM
"SEQ ID NO: 276: GAT polypeptide (protein, 10_23F2, GAT polypeptide) MIEVKPINAEDTYEIRHRILRPNQPLEACMYETDLLGGTFHLGGYYRGKLVSIASFHQAEHPELEGQKQYQLRGMATLEGYREQKAGSTLIRHAEELLRKKGADLLWCNARTSASGYYKKLGFSEQGEVYDTPPVGPHILMYKKLT",1.688 s⁻¹,900 µM
"SEQ ID NO: 275: GAT polypeptide (protein, 10_20D10, GAT polypeptide) MIEVKPINAEDTYEIRHRILRPNQPLEACMYETDLLGGTLHLGGYYRGKLISIASFHQAEHPELEGQKQYQLRGMATLEEYREQKAGSTLIRHAEELLRKKGADLLWCNARTSASGYYKKLGFSEQGGVYDIPPVGPHILMYKKLT",1.44 s⁻¹,1600 µM
"SEQ ID NO: 440: GAT polypeptide (protein, 0_5B3, GAT polypeptide) MLEVKPINAEDTYELRHRILRPNQPIEACMYETDLLRGAFHLGGFYRGKLISIASFHQAEHSELQGQKQYQLRGMATLEGYRDQKAGSSLIKHAEQLLRKRGADLLWCNARTSASGYYKKLGFSEQGEVFDTPPVGPHILMYKRIT",2.38 s⁻¹,390 µM
"SEQ ID NO: 460: GAT polypeptide (protein, 11_3B5, GAT polypeptide) MIEVKPINAEDTYELRHRILRPNQPIEACMFESDLLRGAFHLGGYYRGKLISIASFHQAEHSELQGQKQYQLRGMATLEGYRDQKAGSSLIRHAEQILRKRGADMLWCNARTSASGYYKKLGFSEQGEVFDTPPVGPHILMYKRIT",3.2435 s⁻¹,260 µM
"SEQ ID NO: 453: GAT polypeptide (protein, 10_4D5, GAT polypeptide) MIEVKPINAEDTYELRHRILRPNQPIEVCMYETDLLRGAFHLGGFYRGKLISIASFHQAEHSDLQGQKQYQLRGMATLEGYREQKAGSTLIRHAEQILRKRGADLLWCNARTSASGYYKKLGFSEQGEVFDTPPVGPHILMYKRIT",1.379 s⁻¹,–
"SEQ ID NO: 446: GAT polypeptide (protein, 0_5D7, GAT polypeptide) MIEVKPINAEETYELRHRILRPNQPIEACMYETDLLRGAFHLGGFYRGKLISIASFHQAEHSELEGQKQYQLRGMATLEGYRDQKAGSSLIRHAEQLLRKKGANMLWCNARTTASGYYKKLGFSEQGEIFDTPPVGPHILMYKRIT",4.07 s⁻¹,1100 µM
"SEQ ID NO: 441: GAT polypeptide (protein, 0_5B4, GAT polypeptide) MLEVKLINAEDTYELRHRILRPNQPLEACMYETDLLRGAFHLGGFYRGKLISIASFHQAEHSDLEGQKQYQLRGMATLEGFRDQKAGSSLIKHAEEILRKRGANLLWCNARTSASGYYKKLGFSEQGEVFDTPPVGPHILMYKRIT",3 s⁻¹,600 µM
"SEQ ID NO: 447: GAT polypeptide (protein, 0_6B4, GAT polypeptide) MLEVKPINAEDTYELRHRILRPNQPIEACMYESDLLRGALHLGGFYRGKLISIASFHQAEHSDLQGQKQYQLRGMATLEGFRDQKAGSSLIRHAEQILRKRGADLLWCNARTSASGYYKKLGFSEQGKVFDTPPVGPHILMYKRIT",4.2 s⁻¹,800 µM
"SEQ ID NO: 449: GAT polypeptide (protein, 0_6D11, GAT polypeptide) MIEVKPINAEDTYELRHRILRPNQPIEACMYESDLLRGAFHLGGYYRGKLISIASFHQAEHSDLQGQKQYQLRGMATLEGFRDQKAGSSLIRHAEQILRKRGADLLWCNARTSASGYYKKLGFSEQGEVFETPPVGPHILMYKRIT",3.53 s⁻¹,440 µM
"SEQ ID NO: 443: GAT polypeptide (protein, 0_5C4, GAT polypeptide) MIEVKPINAEDTYELRHKILRPNQPLEACMYETDLLRGAFHLGGFYRGKLISIASFHQAEHSGLQGQKQYQLRGMATLEGYREQKAGSSIIKHAEEILRKKGADLLWCNARTSASGYYKKLGFSEQGEIFDTPPVGPHILMYKRIT",3.42 s⁻¹,670 µM
"SEQ ID NO: 455: GAT polypeptide (protein, 10_4F9, GAT polypeptide) MIEVKPINAEDTYELRHRILRPNQPIEVCMYETDLLRGAFHLGGFYRGKLISIASFHQAEHSELQGQKQYQLRGMATLEGFREQKAGSSLIRHAEQILRKRGADLLWCNARTSASGYYKKLGFSEQGEIFDTPPVGPHILMYKRLT",0.9232 s⁻¹,–
"SEQ ID NO: 459: GAT polypeptide (protein, 11_3B1, GAT polypeptide) MLEVKPINAEDTYELRHRILRPNQPIEACMFETDLLRGAFHLGGFYRGKLISIASFHQAEHSDLQGQKQYQLRGMATLEGFREQKAGSTLIRHAEEILRKRGADLLWCNARTSASGYYKRLGFSEQGEIFDTPPVGPHILMYKRLT",3.6662 s⁻¹,630 µM
"SEQ ID NO: 438: GAT polypeptide (protein, 0_4B10, GAT polypeptide) MIEVKPINAEDTYELRHKILRPNQPIEACMYESDLLRGAFHLGGFYRGKLISIASFHQAEHSDLEGQKQYQLRGMATLEGYRDQKAGSTLIKHAEEILRKRGADMLWCNARTTASGYYKKLGFSEQGEIFDTPPVGPHILMYKRLT",3.17 s⁻¹,680 µM
"SEQ ID NO: 456: GAT polypeptide (protein, 10_4G5, GAT polypeptide) MIEVKPINAEDTYELRHRILRPNQPIEACMFESDLLRGAFHLGGYYRGKLISIASFHQAEHSDLQGQKQYQLRGMATLEGYRDQKAGSSLIRHAEQILRKRGADLLWCNARTSASGYYKKLGFSEQGEIFDTPPVGPHILMYKRLT",2.9442 s⁻¹,580 µM
"SEQ ID NO: 458: GAT polypeptide (protein, 11_3A11, GAT polypeptide) MIEVKPINAEDTYELRHKILRPNQPIEVCMYESDLLRGAFHLGGFYRGKLISIASFHQAEHPDLQGQKQYQLRGMATLEGYRDQKAGSSLIKHAEQILRKRGADLLWCNARTSASGYYKKLGFSEQGEVFETPPVGPHILMYKRLT",0.9277 s⁻¹,–
"SEQ ID NO: 454: GAT polypeptide (protein, 10_4F2, GAT polypeptide) MLEVKPINAEDTYELRHRILRPNQPIEACMFESDLLRGAFHLGGFYRGKLISIASFHQAEHSELQGQKQYQLRGMATLEGYREQKAGSSLIRHAEEILRKRGADMLWCNARTSASGYYKKLGFSEQGEIFETPPVGPHILMYKRLT",3.8507 s⁻¹,200 µM
"SEQ ID NO: 442: GAT polypeptide (protein, 0_5B8, GAT polypeptide) MIEVKPINAEDTYELRHKILRPNQPIEACMYESDLLRGAFHLGGFYRGKLISIASFHQAEHSDLQGQKQYQLRGMATLEGYRDQKAGSSLIRHAEQILRKRGADLLWCNARTSASGYYKKLGFSEQGEIFDTPPVGPHILMYKRLT",2.38 s⁻¹,270 µM
"SEQ ID NO: 452: GAT polypeptide (protein, X: residue not identified in the source; ends and bridges not checked, GAT polypeptide) MIEVKPINAEDTYELRHKILRPNQPLEVCMYETDLLRGAFHLGGXYRGKLISIASFHQAEHSELQGQKQYQLRGMATLEGYRDQKAGSSLIKHAEQILRKRGADXLWCNARTSASGYYKKLGFSEQGEIFDTPPVGPHILMYKRLT",1.16 s⁻¹,–
"SEQ ID NO: 450: GAT polypeptide (protein, 0_6F2, GAT polypeptide) MIEVKPINAEDTYELRHRILRPNQPIEACMYESDLLRGAFHLGGYYRGKLISIASFHQAEHSELQGQKQYQLRGMATLEGFREQKAGSTLIRHAEQILRKRGADMLWCNARTSASGYYKKLGFSEQGEIFDTPPVGPHILMYKRIT",2.92 s⁻¹,340 µM
"SEQ ID NO: 444: GAT polypeptide (protein, 0_5D11, GAT polypeptide) MIEVKPINAEDTYELRHRILRPNQPIEACMYESDLLRGAFHLGGFYRGKLISIASFHQAEHSDLQGQKQYQLRGMATLEGYREQKAGSTLIRHAEQLLRKRGADLLWCNARTSASGYYKRLGFSEQGEVFDTPPVGPHILMYKRLT",3.73 s⁻¹,670 µM
"SEQ ID NO: 439: GAT polypeptide (protein, 0_5B11, GAT polypeptide) MIEVKPINAEDTYELRHKILRPNQPIEACMYESDLLRGAFHLGGFYGGKLISIASFHQAEHSDLEGQKQYQLRGMATLEGYRDQKAGSTLIKHAEQLLRKRGADMLWCNARTSASGYYKKLGFSEQGEVFETPPVGPHILMYKKIT",3.65 s⁻¹,540 µM
"SEQ ID NO: 451: GAT polypeptide (protein, 0_6H9, GAT polypeptide) MIEVKPINAEDTYELRHKILRPNQPIEACMYETDLLRGAFHLGGFYGGKLISIASFHQAEHSDLEGQKQYQLRGMATLEGYREQKAGSTLIRHAEEILRKKGANLLWCNARTSASGYYKKLGFSEQGEVFDTPPVGPHILMYKRLT",3.8 s⁻¹,470 µM
